The target in assay [1] is T1, CD28 (Homo sapiens, UniProt P10747). Kind of assay: Flow binding to HEK293 cells transfected with CD28. The note with it: Table E1. Details: Full-length mammalian surface expression constructs for each of human CTLA-4, PD-L1, and CD28; host or cells: HEK293 cells, Expi293F transient transfection system. How it is done:
This Example describes Fc-fusion binding studies of purified proteins from the above Examples to cell-expressed CTLA-4, PD-L1, and CD28 counter structures to assess the specificity and affinity of CD80 domain variant immunomodulatory proteins. Full-length mammalian surface expression constructs for each of human CTLA-4, PD-L1, and CD28, were designed in pcDNA3.1 expression vector (Life Technologies) and sourced from Genscript, USA. Binding studies were carried out on transfected HEK293 cells generated to express the full-length mammalian surface ligands using the using the Expi293F transient transfection system (Life Technologies, USA). As a control, binding to mock (non-transfected) cells also was assessed. […]
For staining and analysis by flow cytometry, 100,000 cells of appropriate transient transfection or negative control (mock) were plated in 96-well round bottom plates. […] As controls, the binding activities of wild-type CD80-ECD-Fc (R&D Systems), wild-type CD80-ECD-Fc (inert), wild-type IgV-Fc (inert) and/or human IgG (Sigma) were also assessed. […] Secondary antibody was washed out twice, cells were fixed in 4% formaldehyde/PBS, and samples were analyzed on Intellicyt flow cytometer (Intellicyt Corp, USA). Mean Fluorescence Intensity (MFI) was calculated for each transfectant and mock transfected HEK293 with FlowJo Version 10 software (FlowJo LLC, USA). […]

Another assay has as its target huCTLA4 (Homo sapiens, UniProt P16410). The assay can be described thus: Flow binding to HEK293 cells transfected with CTLA4. Details: Full-length mammalian surface expression constructs for each of human CTLA-4, PD-L1, and CD28; host or cells: HEK293 cells, Expi293F transient transfection system. As to conditions: Table E1. How it is done:
Full-length mammalian surface expression constructs for each of human CTLA-4, PD-L1, and CD28, were designed in pcDNA3.1 expression vector (Life Technologies) and sourced from Genscript, USA. Binding studies were carried out on transfected HEK293 cells generated to express the full-length mammalian surface ligands using the using the Expi293F transient transfection system (Life Technologies, USA). As a control, binding to mock (non-transfected) cells also was assessed. […] For each CTLA-4, PD-L1, CD-28 or mock 30 mL transfection, 75 million Expi293F cells were incubated with 30 μg expression construct DNA and 1.5 mL diluted ExpiFectamine 293 reagent for 48 hours, at which point cells were harvested for staining.
For staining and analysis by flow cytometry, 100,000 cells of appropriate transient transfection or negative control (mock) were plated in 96-well round bottom plates. Cells were spun down and resuspended in staining buffer (PBS (phosphate buffered saline), 1% BSA (bovine serum albumin), and 0.1% sodium azide) for 20 minutes to block non-specific binding. […] Secondary antibody was washed out twice, cells were fixed in 4% formaldehyde/PBS, and samples were analyzed on Intellicyt flow cytometer (Intellicyt Corp, USA). Mean Fluorescence Intensity (MFI) was calculated for each transfectant and mock transfected HEK293 with FlowJo Version 10 software (FlowJo LLC, USA).

The target in assay [2] is T1, CD28. Kind of assay: Jurkat/IL2 + CHO/OKT3 +/- PD-L1 reporter assay: PD-L1-dependent CD28 costimulation. The note with it: luciferase signal. Details: host or cells: Jurkat cells expressing an IL-2-luciferase reporter. The format is cell-based. In a few lines: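 Jurkat reporter cells (100,000/well) preincubated 15 min at room temperature with test protein, then cocultured 5 h at 37 °C with CHO aAPCs bearing anti-CD3 scFv (OKT3) with or without PD-L1. Luciferase luminescence (RLU) read after lysis-substrate addition.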

Assay [3] has as its target T1, CD28. Kind of assay: CD28 costimulation via Fc receptor or PD-L1 dependent cross-linking (Jurkat/IL2 + K562/OKT3 +/- PD-L1). The format is cell-based. Details: host or cells: Jurkat cells expressing an IL-2-luciferase reporter. The note with it: luciferase signal. How it is done:
In a further experiment, CD28 costimulation was assessed for variant CD80-IgV-Fc fusion proteins, where the Fc was an IgG1 Fc (e.g. SEQ ID NO:1517) capable of mediating effector activity via binding to Fc receptors (FcR). The experiment was carried out as described in part A above, except CD32-expressing K562 cells stably transduced with OKT3 (K562/OKT3) or OKT3 and PD-L1 (K562/OKT3/PD-L1) were used instead of the CHO/OKT3 and CHO/OKT3/PD-L1 cells, and the results are depicted in Table E9.

In the next assay the test system is human pan T cells. The assay can be described thus: Anti-CD3 coimmobilization assay, IFN-gamma. Type of assay: cell-based. As to conditions: Table E32; variant ECD-Fc coimmobilized with anti-CD3; culture supernatant. As for the experimental part:
Costimulatory bioactivity of CD80 fusion variants was determined in anti-CD3 coimmobilization assays. 1 nM or 4 nM mouse anti-human CD3 (OKT3, Biolegends, USA) was diluted in PBS with 1 nM to 80 nM rCD80.Fc variant proteins. This mixture was added to tissue culture treated flat bottom 96-well plates (Corning, USA) overnight to facilitate adherence of the stimulatory proteins to the wells of the plate. The next day, unbound protein was washed off the plates and 100,000 purified human pan T cells (BenTech Bio, US) or human T cell clone BC3 (Astarte Biologics, USA) were added to each well in a final volume of 200 μl of Ex-Vivo 15 media (Lonza, Switzerland). Cells were cultured 3 days before harvesting culture supernatants and measuring human IFN-gamma levels with Duoset ELISA kit (R&D Systems, USA) as described above.

Another assay deals with allogeneic CD4+ T cells. The assay can be described thus: Mixed Lymphocyte Reaction (MLR), IFN-gamma. The note with it: Table E32; variant ECD-Fc in MLR assay; culture supernatant. The format is cell-based, human. As for the experimental part: Soluble rCD80.Fc bioactivity was tested in a human Mixed Lymphocyte Reaction (MLR). Human primary dendritic cells (DC) were generated by culturing monocytes isolated from PBMC (BenTech Bio, USA) in vitro for 7 days with 500U/ml rIL-4 (R&D Systems, USA) and 250 U/ml rGM-CSF (R&D Systems, USA) in Ex-Vivo 15 media (Lonza, Switzerland). 10,000 matured DC and 100,000 purified allogeneic CD4+ T cells (BenTech Bio, USA) were co-cultured with variant CD80 Fc fusion proteins and controls in 96 well round bottom plates in 200 μl final volume of Ex-Vivo 15 media. On day 5, IFN-gamma secretion in culture supernatants was analyzed using the Human IFN-gamma Duoset ELISA kit (R&D Systems, USA). Optical density was measured by VMax ELISA Microplate Reader (Molecular Devices, USA) and quantitated against titrated rIFN-gamma standard included in the IFN-gamma Duo-set kit (R&D Systems, USA).

Another assay has as its target huPD-L1 (Homo sapiens, UniProt Q9NZQ7). Kind of assay: Flow binding to Expi293F cells transfected with PD-L1 (ECD variants). Details: Full-length mammalian surface expression constructs for each of human CTLA-4, PD-L1, and CD28; host or cells: HEK293 cells, Expi293F transient transfection system. As to conditions: Table E32; variant CD80 ECD-Fc selected against CD28. How it is done:
To produce cells expressing cognate binding partners, full-length mammalian surface expression constructs for each of human CD28, CTLA-4 and PD-L1, were designed in pcDNA3.1 expression vector (Life Technologies) and sourced from Genscript, USA. Binding studies were carried out using the Expi293F transient transfection system (Life Technologies, USA). […] For each CD28, CTLA-4, PD-L1, or mock 30 ml transfection, 75 million Expi293F cells were incubated with 30 μg expression construct DNA and 1.5 ml diluted ExpiFectamine 293 reagent for 48 hours, at which point cells were harvested for staining.
For staining by flow cytometry, 200,000 cells of appropriate transient transfection or negative control were plated in 96-well round bottom plates. Cells were spun down and resuspended in staining buffer (PBS (phosphate buffered saline), 1% BSA (bovine serum albumin), and 0.1% sodium azide) for 20 minutes to block non-specific binding. […] Secondary antibody was washed out twice, cells were fixed in 4% formaldehyde/PBS, and samples were analyzed on FACScan flow cytometer (Becton Dickinson, USA).
Mean Fluorescence Intensity (MFI) was calculated for each transfectant and negative parental line with Cell Quest Pro software (Becton Dickinson, USA).

huPD-L1, sequence (Q9NZQ7 19-290): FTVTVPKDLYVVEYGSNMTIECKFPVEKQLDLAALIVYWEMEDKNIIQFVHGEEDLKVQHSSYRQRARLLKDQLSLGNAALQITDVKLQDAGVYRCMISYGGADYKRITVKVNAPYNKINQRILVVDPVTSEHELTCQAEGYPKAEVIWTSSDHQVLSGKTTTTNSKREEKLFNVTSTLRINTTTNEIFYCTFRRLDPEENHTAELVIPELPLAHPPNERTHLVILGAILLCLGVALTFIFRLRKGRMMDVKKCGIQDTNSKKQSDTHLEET
huCTLA4, sequence (P16410 36-223): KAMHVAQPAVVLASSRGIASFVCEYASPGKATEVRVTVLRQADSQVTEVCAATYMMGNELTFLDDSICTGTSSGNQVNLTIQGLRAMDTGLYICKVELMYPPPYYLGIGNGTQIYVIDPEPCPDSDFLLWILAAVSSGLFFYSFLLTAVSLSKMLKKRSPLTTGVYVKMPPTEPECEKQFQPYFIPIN

Turning to “Fc only: negative control Fc alone [reference compound]”, the “CD28 MFI at 66.6 nM” value with CD28 [1] was 2592. The “CTLA4 MFI at 66.6 nM” value with huCTLA4 worked out at 5962. Further, the “PD-L1-Dependent CD28 Costimulation, +PD-L1, 0.6 nM” value with CD28 [2] (CHO/OKT3/PD-L1 aAPC, 0.6 nM) worked out at 501. In the assay with CD28 [2] (CHO/OKT3/PD-L1 aAPC, 50 nM), the “PD-L1-Dependent CD28 Costimulation, +PD-L1, 50 nM” value is given as 440. For the same substance, the “PD-L1-Dependent CD28 Costimulation, No PD-L1, 50 nM” value with CD28 [2] (CHO/OKT3 aAPC, no PD-L1, 50 nM) was 395. In the assay with CD28 [2] (CHO/OKT3 aAPC, no PD-L1, […]), the “PD-L1-Dependent CD28 Costimulation, No PD-L1, […]” value is recorded as 419. Moreover, in the assay with CD28 [3] (K562/0KT3/PD-L1 aAPC, 0.6 nM), the “CD28 costimulation, Combination of FcR and/or PD-L1 Dependent Cross-Linking, 0.6 nM” value turned out to be 689. Moreover, in the assay with CD28 [3] (K562/0KT3/PD-L1 aAPC, 50 nM), the “CD28 costimulation, Combination of FcR and/or PD-L1 Dependent Cross-Linking, 50 nM” value is recorded as 679. The “CD28 costimulation, FcR Dependent Cross-Linking (No PD-L1), 0.6 nM” value in the assay with CD28 [3] (K562/0KT3 aAPC, 0.6 nM) stood at 1404. The “CD28 costimulation, FcR Dependent Cross-Linking (No PD-L1), 50 nM” value with CD28 [3] (K562/0KT3 aAPC, 50 nM) is 1373. Moreover, in the assay with CD28 [3] (K562/0KT3 aAPC, […]), the “CD28 costimulation, FcR Dependent Cross-Linking (No PD-L1), […]” value was 1390.

WT CD80: the “Coimmobilization with anti CD3 IFN-gamma” value with human pan T cells was determined as 83 pg/mL. In addition, in the assay on allogeneic CD4+ T cells, the “MLR IFN-gamma levels” value turned out to be 866 pg/mL. The “Binding PD-L1 MFI” value with huPD-L1 is on record as 70.

The values are drawn from US20220177587A1, “METHODS AND USES OF VARIANT CD80 FUSION PROTEINS AND RELATED CONSTRUCTS” (Alpine Immune Sciences, Inc., priority 2018, published 2022).
